Data as given in PMC5150216, “Actin activates Pseudomonas aeruginosa ExoY nucleotidyl cyclase toxin and ExoY-like effector domains from MARTX toxins” (Nature Communications, 2016).

Experiments:
[1] = biological target: T1, α-actin from rabbit skeletal muscle (rabbit, UniProt P68135 1-377); assay: co-sedimentation; settings: both partners purified
[2] = biological target: T1, α-actin from rabbit skeletal muscle; assay: co-sedimentation; as a6, F-actin with 6 μM phalloidin; settings: both partners purified

B1: MBP-ExoY^K81M-ST (enzyme)
chain: MRIDGHRQVVSNATAQPGPLLRPADMQARALQDLFDAQGVGVPVEHALRMQAVARQTNTVFGIRPVERIVTTLIEEGFPTMGFSVKGKSSNWGPQAGFICVDQHLSKREDRDTAEIRKLNLAVAKGMDGGAYTQTDLRISRQRLAELVRNFGLVADGVGPVRLLTAQGPSGKRYEFEARQEPDGLYRISRLGRSEAVQVLASPACGLAMTADYDLFLVAPSIEAHGSGGLDARRNTAVRYTPLGAKDPLSEDGFYGREDMARGNITPRTRQLVDALNDCLGRGEHREMFHHSDDAGNPGSHMGDNFPATFYLPRAMEHRVGEESVRFDEVCVVADRKSFSLLVECIKGNGYHFTAHPDWNVPLRPSFQEALDFFQRKV
notes: also called His-MBP-ExoY^K81M-ST; source: expressed from pEA12 (Ptac promoter); purified under non-denaturing conditions (HisTrap, StrepTrap, Superdex 200); not shown: His-tag, N-terminal, kept; MBP, N-terminal, kept; Strep-tagII, C-terminal, kept
[1]
  Kd: 1600 ± 300 nM
  stoichiometry N: 1
[2]
  Kd: 1600 to 1800 nM
